# Assay results published in patent publication US20260049138A1 (Chugai, published 2026).
# Target: T1, CD3ε homodimer protein (human, UniProt P07766 23-126, limits assumed)
# T1 construct: also called CD3 (CD3ε)
# Experiment: SPR Biacore T200, CD3ε homodimer on chip;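 also: Light-chain single-residue variant antibodies injected over amine-coupled CD3ε homodimer on a CM4 chip at 25 °C, bound amount divided by that of the GLS3000-containing antibody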
# T1 sequence (P07766 23-126 limits assumed): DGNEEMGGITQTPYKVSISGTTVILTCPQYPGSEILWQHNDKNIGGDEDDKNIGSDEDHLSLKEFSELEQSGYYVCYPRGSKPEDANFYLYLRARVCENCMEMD
row,Binder,ratio of amount bound vs unaltered GLS3000
1,"GLS3000 N28K one-arm antibody (antibody, human IgG1, kappa, L234A L235A, N297A, name in Kabat numbering) heavy: QVQLVESGGGVVQPGRSLRLSCAASGFTFSNAWMHWVRQAPGKGLEWVAQIKAKSNNYATYYAESVKGRFTISRDDSKNSLYLQMNSLKTEDTAVYYCRYVHYGAYYGVDAWGQGTTVTVSSASTKGPSVFPLAPSSKSTSGGTAALGCLVKDYFPEPVTVSWNSGALTSGVHTFPAVLQSSGLYSLSSVVTVPSSSLGTQTYICNVNHKPSNTKVDKKVEPKSCDKTHTCPPCPAPEAAGGPSVFLFPPKPKDTLMISRTPEVTCVVVDVSHEDPEVKFNWYVDGVEVHNAKTKPREEQYASTYRVVSVLTVLHQDWLNGKEYKCKVSNKALPAPIEKTISKAKGQPREPQVYTLPPSRCELTKNQVSLSCAVKGFYPSDIAVEWESNGQPENNYKTTPPVLDSDGSFFLVSKLTVDKSRWQQGNVFSCSVMHEALHNHYTQKSLSLSPDYKDDDDK EPKSSDKTHTCPPCPAPELLGGPSVFLFPPKPKDTLMISRTPEVTCVVVDVSHEDPEVKFNWYVDGVEVHNAKTKPREEQYNSTYRVVSVLTVLHQDWLNGKEYKCKVSNKALPAPIEKTISKAKGQPREPQVCTLPPSRDELTKNQVSLWCLVKGFYPSDIAVEWESNGQPENNYKTTPPVLDSDGSFFLYSKLTVDKSRWQQGNVFSCSVMHEALHNRYTQKSLSLSP light: DIVMTQSPLSLPVTPGEPASISCRSSQSLVHSKRNTYLHWYQQKPGQAPRLLIYKVSNRFSGVPDRFSGSGSGTDFTLKISRVEAEDVGVYYCGQGTQVPYTFGQGTKLEIKRTVAAPSVFIFPPSDEQLKSGTASVVCLLNNFYPREAKVQWKVDNALQSGNSQESVTEQDSKDSTYSLSSTLTLSKADYEKHKVYACEVTHQGLSSPVTKSFNRGEC",0.44
2,"GLS3000 N28S one-arm antibody (antibody, human IgG1, kappa, L234A L235A, N297A, name in Kabat numbering) heavy: QVQLVESGGGVVQPGRSLRLSCAASGFTFSNAWMHWVRQAPGKGLEWVAQIKAKSNNYATYYAESVKGRFTISRDDSKNSLYLQMNSLKTEDTAVYYCRYVHYGAYYGVDAWGQGTTVTVSSASTKGPSVFPLAPSSKSTSGGTAALGCLVKDYFPEPVTVSWNSGALTSGVHTFPAVLQSSGLYSLSSVVTVPSSSLGTQTYICNVNHKPSNTKVDKKVEPKSCDKTHTCPPCPAPEAAGGPSVFLFPPKPKDTLMISRTPEVTCVVVDVSHEDPEVKFNWYVDGVEVHNAKTKPREEQYASTYRVVSVLTVLHQDWLNGKEYKCKVSNKALPAPIEKTISKAKGQPREPQVYTLPPSRCELTKNQVSLSCAVKGFYPSDIAVEWESNGQPENNYKTTPPVLDSDGSFFLVSKLTVDKSRWQQGNVFSCSVMHEALHNHYTQKSLSLSPDYKDDDDK EPKSSDKTHTCPPCPAPELLGGPSVFLFPPKPKDTLMISRTPEVTCVVVDVSHEDPEVKFNWYVDGVEVHNAKTKPREEQYNSTYRVVSVLTVLHQDWLNGKEYKCKVSNKALPAPIEKTISKAKGQPREPQVCTLPPSRDELTKNQVSLWCLVKGFYPSDIAVEWESNGQPENNYKTTPPVLDSDGSFFLYSKLTVDKSRWQQGNVFSCSVMHEALHNRYTQKSLSLSP light: DIVMTQSPLSLPVTPGEPASISCRSSQSLVHSSRNTYLHWYQQKPGQAPRLLIYKVSNRFSGVPDRFSGSGSGTDFTLKISRVEAEDVGVYYCGQGTQVPYTFGQGTKLEIKRTVAAPSVFIFPPSDEQLKSGTASVVCLLNNFYPREAKVQWKVDNALQSGNSQESVTEQDSKDSTYSLSSTLTLSKADYEKHKVYACEVTHQGLSSPVTKSFNRGEC",0.32
3,"GLS3000 N28Q one-arm antibody (antibody, human IgG1, kappa, L234A L235A, N297A, name in Kabat numbering) heavy: QVQLVESGGGVVQPGRSLRLSCAASGFTFSNAWMHWVRQAPGKGLEWVAQIKAKSNNYATYYAESVKGRFTISRDDSKNSLYLQMNSLKTEDTAVYYCRYVHYGAYYGVDAWGQGTTVTVSSASTKGPSVFPLAPSSKSTSGGTAALGCLVKDYFPEPVTVSWNSGALTSGVHTFPAVLQSSGLYSLSSVVTVPSSSLGTQTYICNVNHKPSNTKVDKKVEPKSCDKTHTCPPCPAPEAAGGPSVFLFPPKPKDTLMISRTPEVTCVVVDVSHEDPEVKFNWYVDGVEVHNAKTKPREEQYASTYRVVSVLTVLHQDWLNGKEYKCKVSNKALPAPIEKTISKAKGQPREPQVYTLPPSRCELTKNQVSLSCAVKGFYPSDIAVEWESNGQPENNYKTTPPVLDSDGSFFLVSKLTVDKSRWQQGNVFSCSVMHEALHNHYTQKSLSLSPDYKDDDDK EPKSSDKTHTCPPCPAPELLGGPSVFLFPPKPKDTLMISRTPEVTCVVVDVSHEDPEVKFNWYVDGVEVHNAKTKPREEQYNSTYRVVSVLTVLHQDWLNGKEYKCKVSNKALPAPIEKTISKAKGQPREPQVCTLPPSRDELTKNQVSLWCLVKGFYPSDIAVEWESNGQPENNYKTTPPVLDSDGSFFLYSKLTVDKSRWQQGNVFSCSVMHEALHNRYTQKSLSLSP light: DIVMTQSPLSLPVTPGEPASISCRSSQSLVHSQRNTYLHWYQQKPGQAPRLLIYKVSNRFSGVPDRFSGSGSGTDFTLKISRVEAEDVGVYYCGQGTQVPYTFGQGTKLEIKRTVAAPSVFIFPPSDEQLKSGTASVVCLLNNFYPREAKVQWKVDNALQSGNSQESVTEQDSKDSTYSLSSTLTLSKADYEKHKVYACEVTHQGLSSPVTKSFNRGEC",0.37
4,"GLS3000 N28M one-arm antibody (antibody, human IgG1, kappa, L234A L235A, N297A, name in Kabat numbering) heavy: QVQLVESGGGVVQPGRSLRLSCAASGFTFSNAWMHWVRQAPGKGLEWVAQIKAKSNNYATYYAESVKGRFTISRDDSKNSLYLQMNSLKTEDTAVYYCRYVHYGAYYGVDAWGQGTTVTVSSASTKGPSVFPLAPSSKSTSGGTAALGCLVKDYFPEPVTVSWNSGALTSGVHTFPAVLQSSGLYSLSSVVTVPSSSLGTQTYICNVNHKPSNTKVDKKVEPKSCDKTHTCPPCPAPEAAGGPSVFLFPPKPKDTLMISRTPEVTCVVVDVSHEDPEVKFNWYVDGVEVHNAKTKPREEQYASTYRVVSVLTVLHQDWLNGKEYKCKVSNKALPAPIEKTISKAKGQPREPQVYTLPPSRCELTKNQVSLSCAVKGFYPSDIAVEWESNGQPENNYKTTPPVLDSDGSFFLVSKLTVDKSRWQQGNVFSCSVMHEALHNHYTQKSLSLSPDYKDDDDK EPKSSDKTHTCPPCPAPELLGGPSVFLFPPKPKDTLMISRTPEVTCVVVDVSHEDPEVKFNWYVDGVEVHNAKTKPREEQYNSTYRVVSVLTVLHQDWLNGKEYKCKVSNKALPAPIEKTISKAKGQPREPQVCTLPPSRDELTKNQVSLWCLVKGFYPSDIAVEWESNGQPENNYKTTPPVLDSDGSFFLYSKLTVDKSRWQQGNVFSCSVMHEALHNRYTQKSLSLSP light: DIVMTQSPLSLPVTPGEPASISCRSSQSLVHSMRNTYLHWYQQKPGQAPRLLIYKVSNRFSGVPDRFSGSGSGTDFTLKISRVEAEDVGVYYCGQGTQVPYTFGQGTKLEIKRTVAAPSVFIFPPSDEQLKSGTASVVCLLNNFYPREAKVQWKVDNALQSGNSQESVTEQDSKDSTYSLSSTLTLSKADYEKHKVYACEVTHQGLSSPVTKSFNRGEC",0.39
5,"GLS3000 N28P one-arm antibody (antibody, human IgG1, kappa, L234A L235A, N297A, name in Kabat numbering) heavy: QVQLVESGGGVVQPGRSLRLSCAASGFTFSNAWMHWVRQAPGKGLEWVAQIKAKSNNYATYYAESVKGRFTISRDDSKNSLYLQMNSLKTEDTAVYYCRYVHYGAYYGVDAWGQGTTVTVSSASTKGPSVFPLAPSSKSTSGGTAALGCLVKDYFPEPVTVSWNSGALTSGVHTFPAVLQSSGLYSLSSVVTVPSSSLGTQTYICNVNHKPSNTKVDKKVEPKSCDKTHTCPPCPAPEAAGGPSVFLFPPKPKDTLMISRTPEVTCVVVDVSHEDPEVKFNWYVDGVEVHNAKTKPREEQYASTYRVVSVLTVLHQDWLNGKEYKCKVSNKALPAPIEKTISKAKGQPREPQVYTLPPSRCELTKNQVSLSCAVKGFYPSDIAVEWESNGQPENNYKTTPPVLDSDGSFFLVSKLTVDKSRWQQGNVFSCSVMHEALHNHYTQKSLSLSPDYKDDDDK EPKSSDKTHTCPPCPAPELLGGPSVFLFPPKPKDTLMISRTPEVTCVVVDVSHEDPEVKFNWYVDGVEVHNAKTKPREEQYNSTYRVVSVLTVLHQDWLNGKEYKCKVSNKALPAPIEKTISKAKGQPREPQVCTLPPSRDELTKNQVSLWCLVKGFYPSDIAVEWESNGQPENNYKTTPPVLDSDGSFFLYSKLTVDKSRWQQGNVFSCSVMHEALHNRYTQKSLSLSP light: DIVMTQSPLSLPVTPGEPASISCRSSQSLVHSPRNTYLHWYQQKPGQAPRLLIYKVSNRFSGVPDRFSGSGSGTDFTLKISRVEAEDVGVYYCGQGTQVPYTFGQGTKLEIKRTVAAPSVFIFPPSDEQLKSGTASVVCLLNNFYPREAKVQWKVDNALQSGNSQESVTEQDSKDSTYSLSSTLTLSKADYEKHKVYACEVTHQGLSSPVTKSFNRGEC",0.36
6,"GLS3000 N28L one-arm antibody (antibody, human IgG1, kappa, L234A L235A, N297A, name in Kabat numbering) heavy: QVQLVESGGGVVQPGRSLRLSCAASGFTFSNAWMHWVRQAPGKGLEWVAQIKAKSNNYATYYAESVKGRFTISRDDSKNSLYLQMNSLKTEDTAVYYCRYVHYGAYYGVDAWGQGTTVTVSSASTKGPSVFPLAPSSKSTSGGTAALGCLVKDYFPEPVTVSWNSGALTSGVHTFPAVLQSSGLYSLSSVVTVPSSSLGTQTYICNVNHKPSNTKVDKKVEPKSCDKTHTCPPCPAPEAAGGPSVFLFPPKPKDTLMISRTPEVTCVVVDVSHEDPEVKFNWYVDGVEVHNAKTKPREEQYASTYRVVSVLTVLHQDWLNGKEYKCKVSNKALPAPIEKTISKAKGQPREPQVYTLPPSRCELTKNQVSLSCAVKGFYPSDIAVEWESNGQPENNYKTTPPVLDSDGSFFLVSKLTVDKSRWQQGNVFSCSVMHEALHNHYTQKSLSLSPDYKDDDDK EPKSSDKTHTCPPCPAPELLGGPSVFLFPPKPKDTLMISRTPEVTCVVVDVSHEDPEVKFNWYVDGVEVHNAKTKPREEQYNSTYRVVSVLTVLHQDWLNGKEYKCKVSNKALPAPIEKTISKAKGQPREPQVCTLPPSRDELTKNQVSLWCLVKGFYPSDIAVEWESNGQPENNYKTTPPVLDSDGSFFLYSKLTVDKSRWQQGNVFSCSVMHEALHNRYTQKSLSLSP light: DIVMTQSPLSLPVTPGEPASISCRSSQSLVHSLRNTYLHWYQQKPGQAPRLLIYKVSNRFSGVPDRFSGSGSGTDFTLKISRVEAEDVGVYYCGQGTQVPYTFGQGTKLEIKRTVAAPSVFIFPPSDEQLKSGTASVVCLLNNFYPREAKVQWKVDNALQSGNSQESVTEQDSKDSTYSLSSTLTLSKADYEKHKVYACEVTHQGLSSPVTKSFNRGEC",0.39
